Experimental data as given in US20210032299A1.
Starred links: 1 amine or outer side, 2 acyl side, 3 side chain; linkers in the order of their positions; H or OH if unused. Non-standard residues stand in square brackets, D forms with d. Groups on a side chain read outwards from the residue. No end group written: not given here. *: point of attachment. C20 diacid = O=C(O)CCCCCCCCCCCCCCCCCCC(=O)*; C18 diacid = O=C(O)CCCCCCCCCCCCCCCCC(=O)*; αMePhe(2-F) = C[C@](N)(Cc1ccccc1F)C(=O)O; γGlu = O=C(O)[C@H](CCC(=O)[*:2])N[*:1]; 4Pal = N[C@@H](Cc1ccncc1)C(=O)O; αMeL = CC(C)C[C@](C)(N)C(=O)O; Orn = NCCC[C@H](N)C(=O)O; AEEA = NCCOCCOCC(=O)O; Aib = CC(C)(N)C(=O)O

Biological target: T1, human glucose-dependent insulinotropic polypeptide (GIP) receptor (human), P48546
T1 chain: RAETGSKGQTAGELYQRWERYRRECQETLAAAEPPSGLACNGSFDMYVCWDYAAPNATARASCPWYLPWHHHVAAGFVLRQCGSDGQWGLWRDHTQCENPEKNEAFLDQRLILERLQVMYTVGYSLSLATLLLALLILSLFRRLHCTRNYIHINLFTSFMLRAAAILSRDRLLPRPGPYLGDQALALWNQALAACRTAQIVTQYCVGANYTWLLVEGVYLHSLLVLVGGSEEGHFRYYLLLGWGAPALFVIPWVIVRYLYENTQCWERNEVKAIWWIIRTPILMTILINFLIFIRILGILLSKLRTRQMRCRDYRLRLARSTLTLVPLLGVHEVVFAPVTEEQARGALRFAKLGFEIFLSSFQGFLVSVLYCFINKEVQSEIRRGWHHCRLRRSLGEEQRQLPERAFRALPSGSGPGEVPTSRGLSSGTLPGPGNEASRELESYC
Assay: SPA, displacement of [125I]-GIP from hGIPR membranes, 0.1% bacitracin

B1: Example 109 (peptide)
peptide: Y[Aib]EGTFISDYSI[αMeL]LDKIHQ[Aib]DFVE[4Pal]K([AEEA-AEEA-γGlu-C20 diacid])LEGGPSSGAPPPS-NH2
modifications: N-terminus assumed
SMILES: CC[C@H](C)[C@H](NC(=O)[C@H](CCCCN)NC(=O)[C@H](CC(=O)O)NC(=O)[C@H](CC(C)C)NC(=O)[C@](C)(CC(C)C)NC(=O)[C@@H](NC(=O)[C@H](CO)NC(=O)[C@H](Cc1ccc(O)cc1)NC(=O)[C@H](CC(=O)O)NC(=O)[C@H](CO)NC(=O)[C@@H](NC(=O)[C@H](Cc1ccccc1)NC(=O)[C@@H](NC(=O)CNC(=O)[C@H](CCC(=O)O)NC(=O)C(C)(C)NC(=O)[C@@H](N)Cc1ccc(O)cc1)[C@@H](C)O)[C@@H](C)CC)[C@@H](C)CC)C(=O)N[C@@H](Cc1c[nH]cn1)C(=O)N[C@@H](CCC(N)=O)C(=O)NC(C)(C)C(=O)N[C@@H](CC(=O)O)C(=O)N[C@@H](Cc1ccccc1)C(=O)N[C@H](C(=O)N[C@@H](CCC(=O)O)C(=O)N[C@@H](Cc1ccncc1)C(=O)N[C@@H](CCCCNC(=O)COCCOCCNC(=O)COCCOCCNC(=O)CC[C@H](NC(=O)CCCCCCCCCCCCCCCCCCC(=O)O)C(=O)O)C(=O)N[C@@H](CC(C)C)C(=O)N[C@@H](CCC(=O)O)C(=O)NCC(=O)NCC(=O)N1CCC[C@H]1C(=O)N[C@@H](CO)C(=O)N[C@@H](CO)C(=O)NCC(=O)N[C@@H](C)C(=O)N1CCC[C@H]1C(=O)N1CCC[C@H]1C(=O)N1CCC[C@H]1C(=O)N[C@@H](CO)C(N)=O)C(C)C
  Ki: 117 pM

B2: Example 108 (peptide)
peptide: Y[Aib]EGTFISDYSI[αMeL]LD[Orn]IHQ[Aib]DFVE[4Pal]K([AEEA-AEEA-γGlu-C20 diacid])LEGGPSSGAPPPS-NH2
modifications: N-terminus assumed
SMILES: CC[C@H](C)[C@H](NC(=O)[C@H](CCCN)NC(=O)[C@H](CC(=O)O)NC(=O)[C@H](CC(C)C)NC(=O)[C@](C)(CC(C)C)NC(=O)[C@@H](NC(=O)[C@H](CO)NC(=O)[C@H](Cc1ccc(O)cc1)NC(=O)[C@H](CC(=O)O)NC(=O)[C@H](CO)NC(=O)[C@@H](NC(=O)[C@H](Cc1ccccc1)NC(=O)[C@@H](NC(=O)CNC(=O)[C@H](CCC(=O)O)NC(=O)C(C)(C)NC(=O)[C@@H](N)Cc1ccc(O)cc1)[C@@H](C)O)[C@@H](C)CC)[C@@H](C)CC)C(=O)N[C@@H](Cc1c[nH]cn1)C(=O)N[C@@H](CCC(N)=O)C(=O)NC(C)(C)C(=O)N[C@@H](CC(=O)O)C(=O)N[C@@H](Cc1ccccc1)C(=O)N[C@H](C(=O)N[C@@H](CCC(=O)O)C(=O)N[C@@H](Cc1ccncc1)C(=O)N[C@@H](CCCCNC(=O)COCCOCCNC(=O)COCCOCCNC(=O)CC[C@H](NC(=O)CCCCCCCCCCCCCCCCCCC(=O)O)C(=O)O)C(=O)N[C@@H](CC(C)C)C(=O)N[C@@H](CCC(=O)O)C(=O)NCC(=O)NCC(=O)N1CCC[C@H]1C(=O)N[C@@H](CO)C(=O)N[C@@H](CO)C(=O)NCC(=O)N[C@@H](C)C(=O)N1CCC[C@H]1C(=O)N1CCC[C@H]1C(=O)N1CCC[C@H]1C(=O)N[C@@H](CO)C(N)=O)C(C)C
  Ki: 134 pM

B3: Example 110 (peptide)
peptide: Y[Aib]EGTFISDYSI[αMeL]LDKIHQ[Aib]DFVE[4Pal]K([AEEA-AEEA-γGlu-C18 diacid])LEGGPSSGAPPPS-NH2
modifications: N-terminus assumed
SMILES: CC[C@H](C)[C@H](NC(=O)[C@H](CCCCN)NC(=O)[C@H](CC(=O)O)NC(=O)[C@H](CC(C)C)NC(=O)[C@](C)(CC(C)C)NC(=O)[C@@H](NC(=O)[C@H](CO)NC(=O)[C@H](Cc1ccc(O)cc1)NC(=O)[C@H](CC(=O)O)NC(=O)[C@H](CO)NC(=O)[C@@H](NC(=O)[C@H](Cc1ccccc1)NC(=O)[C@@H](NC(=O)CNC(=O)[C@H](CCC(=O)O)NC(=O)C(C)(C)NC(=O)[C@@H](N)Cc1ccc(O)cc1)[C@@H](C)O)[C@@H](C)CC)[C@@H](C)CC)C(=O)N[C@@H](Cc1c[nH]cn1)C(=O)N[C@@H](CCC(N)=O)C(=O)NC(C)(C)C(=O)N[C@@H](CC(=O)O)C(=O)N[C@@H](Cc1ccccc1)C(=O)N[C@H](C(=O)N[C@@H](CCC(=O)O)C(=O)N[C@@H](Cc1ccncc1)C(=O)N[C@@H](CCCCNC(=O)COCCOCCNC(=O)COCCOCCNC(=O)CC[C@H](NC(=O)CCCCCCCCCCCCCCCCC(=O)O)C(=O)O)C(=O)N[C@@H](CC(C)C)C(=O)N[C@@H](CCC(=O)O)C(=O)NCC(=O)NCC(=O)N1CCC[C@H]1C(=O)N[C@@H](CO)C(=O)N[C@@H](CO)C(=O)NCC(=O)N[C@@H](C)C(=O)N1CCC[C@H]1C(=O)N1CCC[C@H]1C(=O)N1CCC[C@H]1C(=O)N[C@@H](CO)C(N)=O)C(C)C
  Ki: 339 pM

B4: Example 114 (peptide)
peptide: Y[Aib]EGT[αMePhe(2-F)]ISDYSIALDKIHQ[Aib]DFVE[4Pal]K([AEEA-AEEA-γGlu-C20 diacid])LEQGPSSGAPPPS-NH2
modifications: N-terminus assumed
SMILES: CC[C@H](C)[C@H](NC(=O)[C@H](CO)NC(=O)[C@H](Cc1ccc(O)cc1)NC(=O)[C@H](CC(=O)O)NC(=O)[C@H](CO)NC(=O)[C@@H](NC(=O)[C@](C)(Cc1ccccc1F)NC(=O)[C@@H](NC(=O)CNC(=O)[C@H](CCC(=O)O)NC(=O)C(C)(C)NC(=O)[C@@H](N)Cc1ccc(O)cc1)[C@@H](C)O)[C@@H](C)CC)C(=O)N[C@@H](C)C(=O)N[C@@H](CC(C)C)C(=O)N[C@@H](CC(=O)O)C(=O)N[C@@H](CCCCN)C(=O)N[C@H](C(=O)N[C@@H](Cc1c[nH]cn1)C(=O)N[C@@H](CCC(N)=O)C(=O)NC(C)(C)C(=O)N[C@@H](CC(=O)O)C(=O)N[C@@H](Cc1ccccc1)C(=O)N[C@H](C(=O)N[C@@H](CCC(=O)O)C(=O)N[C@@H](Cc1ccncc1)C(=O)N[C@@H](CCCCNC(=O)COCCOCCNC(=O)COCCOCCNC(=O)CC[C@H](NC(=O)CCCCCCCCCCCCCCCCCCC(=O)O)C(=O)O)C(=O)N[C@@H](CC(C)C)C(=O)N[C@@H](CCC(=O)O)C(=O)N[C@@H](CCC(N)=O)C(=O)NCC(=O)N1CCC[C@H]1C(=O)N[C@@H](CO)C(=O)N[C@@H](CO)C(=O)NCC(=O)N[C@@H](C)C(=O)N1CCC[C@H]1C(=O)N1CCC[C@H]1C(=O)N1CCC[C@H]1C(=O)N[C@@H](CO)C(N)=O)C(C)C)[C@@H](C)CC
  Ki: 121 pM

B5: Example 118 (peptide)
peptide: Y[Aib]EGTFISDYSI[αMeL]LDKIRQ[Aib]DFVEYK([AEEA-AEEA-γGlu-C20 diacid])LEAGPSSGAPPPS-NH2
modifications: N-terminus assumed
SMILES: CC[C@H](C)[C@H](NC(=O)[C@H](CCCCN)NC(=O)[C@H](CC(=O)O)NC(=O)[C@H](CC(C)C)NC(=O)[C@](C)(CC(C)C)NC(=O)[C@@H](NC(=O)[C@H](CO)NC(=O)[C@H](Cc1ccc(O)cc1)NC(=O)[C@H](CC(=O)O)NC(=O)[C@H](CO)NC(=O)[C@@H](NC(=O)[C@H](Cc1ccccc1)NC(=O)[C@@H](NC(=O)CNC(=O)[C@H](CCC(=O)O)NC(=O)C(C)(C)NC(=O)[C@@H](N)Cc1ccc(O)cc1)[C@@H](C)O)[C@@H](C)CC)[C@@H](C)CC)C(=O)N[C@@H](CCCNC(=N)N)C(=O)N[C@@H](CCC(N)=O)C(=O)NC(C)(C)C(=O)N[C@@H](CC(=O)O)C(=O)N[C@@H](Cc1ccccc1)C(=O)N[C@H](C(=O)N[C@@H](CCC(=O)O)C(=O)N[C@@H](Cc1ccc(O)cc1)C(=O)N[C@@H](CCCCNC(=O)COCCOCCNC(=O)COCCOCCNC(=O)CC[C@H](NC(=O)CCCCCCCCCCCCCCCCCCC(=O)O)C(=O)O)C(=O)N[C@@H](CC(C)C)C(=O)N[C@@H](CCC(=O)O)C(=O)N[C@@H](C)C(=O)NCC(=O)N1CCC[C@H]1C(=O)N[C@@H](CO)C(=O)N[C@@H](CO)C(=O)NCC(=O)N[C@@H](C)C(=O)N1CCC[C@H]1C(=O)N1CCC[C@H]1C(=O)N1CCC[C@H]1C(=O)N[C@@H](CO)C(N)=O)C(C)C
  Ki: 69.6 pM

B6: Example 111 (peptide)
peptide: Y[Aib]EGTFISDYSI[αMeL]LD[Orn]IHQ[Aib]DFVE[4Pal]K([AEEA-AEEA-γGlu-C18 diacid])LEGGPSSGAPPPS-NH2
modifications: N-terminus assumed
SMILES: CC[C@H](C)[C@H](NC(=O)[C@H](CCCN)NC(=O)[C@H](CC(=O)O)NC(=O)[C@H](CC(C)C)NC(=O)[C@](C)(CC(C)C)NC(=O)[C@@H](NC(=O)[C@H](CO)NC(=O)[C@H](Cc1ccc(O)cc1)NC(=O)[C@H](CC(=O)O)NC(=O)[C@H](CO)NC(=O)[C@@H](NC(=O)[C@H](Cc1ccccc1)NC(=O)[C@@H](NC(=O)CNC(=O)[C@H](CCC(=O)O)NC(=O)C(C)(C)NC(=O)[C@@H](N)Cc1ccc(O)cc1)[C@@H](C)O)[C@@H](C)CC)[C@@H](C)CC)C(=O)N[C@@H](Cc1c[nH]cn1)C(=O)N[C@@H](CCC(N)=O)C(=O)NC(C)(C)C(=O)N[C@@H](CC(=O)O)C(=O)N[C@@H](Cc1ccccc1)C(=O)N[C@H](C(=O)N[C@@H](CCC(=O)O)C(=O)N[C@@H](Cc1ccncc1)C(=O)N[C@@H](CCCCNC(=O)COCCOCCNC(=O)COCCOCCNC(=O)CC[C@H](NC(=O)CCCCCCCCCCCCCCCCC(=O)O)C(=O)O)C(=O)N[C@@H](CC(C)C)C(=O)N[C@@H](CCC(=O)O)C(=O)NCC(=O)NCC(=O)N1CCC[C@H]1C(=O)N[C@@H](CO)C(=O)N[C@@H](CO)C(=O)NCC(=O)N[C@@H](C)C(=O)N1CCC[C@H]1C(=O)N1CCC[C@H]1C(=O)N1CCC[C@H]1C(=O)N[C@@H](CO)C(N)=O)C(C)C
  Ki: 87.1 pM
